Results: IntAct's records for PubMed 17129783

B1: Kinetochore protein ndc-80 (Caenorhabditis elegans), Q17635 (parent)
chain: MFGDRRKTGGLNLNGRASIAITPTKRFTDYTGSTSVRKTDARPSLSQPRVSLFNTKNSSVAPRDVKSLVSLNGSKIYNFLVEYESSDAPSEQLIMKPRGKNDFIACFELIYQHLSKDYEFPRHERIEEEVSQIFKGLGYPYPLKNSYYQPMGSSHGYPHLLDALSWLIDIIRINSAVSEDTQNILFGDFMEQGKAQEKTLNYAWMTSTFRDYTNDRKAAENPSSSYWDDTKHRLRKYFEQSNEFEDMTKTAASALEMLNYECDEIEADKGNEASLKEEISRIRDDIRKAKDYLEQNLHVKQHMEKELAMVKSEQEEKISENEKVQKMVDDLKNKIELQKQIHGLTGKEVRQMNLDNNKDKEVVLEIQSELDRLSKETWKLKDEDFFKEQKSKFIHLAEQIMKILSGLNIQMNLEPLRAPTNERDLKDYWETLNKIWVPEISRQLHQRKLELETEQSRFSNKAVTAEERIQIQSETLCEAKKNEAREERIRRNERDSWKDARKHIEQRYEQLLNEKEVLLKQMKLDGSLEKEIEDETARMSATGEEHIQKRSQLEAGIRQILDLMVVEIAEIENKKIGFHVQCAGIEKAVL
partner: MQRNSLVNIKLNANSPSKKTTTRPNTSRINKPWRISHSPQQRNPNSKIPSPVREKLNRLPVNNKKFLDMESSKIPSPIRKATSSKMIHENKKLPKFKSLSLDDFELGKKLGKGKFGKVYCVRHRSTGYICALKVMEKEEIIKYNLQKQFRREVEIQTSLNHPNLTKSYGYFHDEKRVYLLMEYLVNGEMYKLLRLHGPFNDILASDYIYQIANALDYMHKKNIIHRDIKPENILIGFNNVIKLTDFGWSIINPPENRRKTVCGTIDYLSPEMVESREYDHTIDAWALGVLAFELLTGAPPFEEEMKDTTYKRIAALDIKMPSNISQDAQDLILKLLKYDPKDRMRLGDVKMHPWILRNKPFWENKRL

Variants of: B1
Conditions: with aurk_yeast IPL1, P38991

effect of a mutation on the interaction	Variant
disrupting interaction	T8A;S18A;S44A;S51A
